Assay results as given in article PMC7828300.

Target: AAV12 capsid viral protein (VP) (Adeno-associated virus 12)
Assay: cryo-EM structure

AAV12 capsid viral protein (VP) (natural protein)
stoichiometry N: 60
